From PMC6534608, “Rational design of a hypoallergenic Phl p 7 variant for immunotherapy of polcalcin-sensitized patients” (Scientific Reports, 2019)
Each block holds one molecule with its values, some of them ahead of it.

What was measured:
[1] = biological target: recombinant Phl p 7 mutant (hypoallergenic variant, four calcium-coordinating residues replaced by alanine) (timothy grass); experiment: SEC; size exclusion chromatography (Yarra SEC-X150) coupled to a UV detector (230 nm) and ICPMS; 10 mM Tris, 50 mM ammonium sulfate, pH 7.5; 30 °C; apparent molecular masses
[2] = biological target: the molecule itself; experiment: as above

stoichiometry N [1]: 2
Molecule: recombinant Phl p 7 mutant (hypoallergenic variant, four calcium-coordinating residues replaced by alanine) (natural protein)

B1: recombinant wildtype Phl p 7 (timothy grass pollen polcalcin) (natural protein)
chain: ADDMERIFKRFDTNGDGKISLSELTDALRTLGSTSADEVQRMMAEIDTDGDGFIDFNEFISFCNANPGLMKDVAKVF
notes: codon-optimized synthetic gene in pET17b (NdeI/EcoRI); also called rPhl p 7 wildtype; Phl p 7 wildtype; source: E. coli BL21(DE3), purified (anion-exchange chromatography, HiTrap Q FF)
stoichiometry N [2]: 2
